Measured values reported in article PMC3726529 (Nature, 2013).

Assays:
[1] = molecular target: isolated TrkA from Vibrio parahaemolyticus (Vibrio parahaemolyticus)
[2] = molecular target: TrkA from Vibrio parahaemolyticus, co-expressed with TrkH (Vibrio parahaemolyticus); assay: crystal structure
isolated TrkA (VpTrkA) = molecular target: T1, isolated TrkA (VpTrkA) (Vibrio parahaemolyticus, UniProt Q87KD2); assay: co-crystal structure, […] Å; type: binding; conditions: 10 mM ATPγS; GXGXXG motif in the N lobe of each RCK domain
T1 sequence (Q87KD2 1-458): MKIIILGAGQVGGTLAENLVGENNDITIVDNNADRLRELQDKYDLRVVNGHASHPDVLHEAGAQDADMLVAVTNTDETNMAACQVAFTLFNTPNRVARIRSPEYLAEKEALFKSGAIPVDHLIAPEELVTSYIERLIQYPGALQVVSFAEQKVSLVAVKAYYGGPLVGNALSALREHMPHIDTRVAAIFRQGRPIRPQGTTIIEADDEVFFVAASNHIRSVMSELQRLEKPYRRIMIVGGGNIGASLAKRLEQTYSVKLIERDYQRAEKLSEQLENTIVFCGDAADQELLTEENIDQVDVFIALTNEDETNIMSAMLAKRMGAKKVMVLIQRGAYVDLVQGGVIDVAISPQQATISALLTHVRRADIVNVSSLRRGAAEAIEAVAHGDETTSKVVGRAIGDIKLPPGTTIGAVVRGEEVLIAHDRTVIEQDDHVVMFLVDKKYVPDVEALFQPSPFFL

crystal structure = molecular target: the molecule itself; assay: crystal structure

Molecule: isolated TrkA from Vibrio parahaemolyticus (natural protein)
- stoichiometry N [1]: 4

Molecule: TrkA from Vibrio parahaemolyticus, co-expressed with TrkH (natural protein)
- stoichiometry N [2]: 4

Molecule: Nc1ncnc2c1ncn2[C@@H]1O[C@H](COP(=O)(O)OP(=O)(O)OP(O)(O)=S)[C@@H](O)[C@H]1O [ATPγS, adenosine 5′-O-(3-thiotriphosphate)]
- co-crystal structure, 3.05 Å (isolated TrkA (VpTrkA)): Each protomer contains two large densities consistent with ATPγS molecules

B1: TrkH from Vibrio parahaemolyticus (natural protein)
chain: MQFRSIIRIVGLLLALFSVTMLAPALVALLYRDGAGVPFVTTFFVLLFCGAMCWFPNRRHKHELKSRDGFLIVVLFWTVLGSAGSLPFLIADNPNISVTDAFFESFSALTTTGATVIVGLDELPKAILFYRQFLQWFGGMGIIVLAVAILPVLGIGGMQLYRAEIPGPVKDTKMTPRIAETAKALWYIYLSLTIACAVAFWLAGMTPFDAISHSFSTIAIGGFSTHDASMGYFDSYAINLITVVFLLISACNFTLHFAAFASGGVHPKYYWKDPEFRAFIFIQVLLFLVCFLLLLKHHSYTSPYDAFDQALFQTVSISTTAGFTTTGFADWPLFLPVLLLFSSFIGGCAGSTGGGMKVIRILLLTLQGARELKRLVHPRAVYTIKVGGSALPQRVVDAVWGFFSAYALVFVVCMLGLIATGMDELSAFSAVAATLNNLGPGLGEVALHFGDVNDKAKWVLIVSMLFGRLEIFTLLILLTPTFWRS
- stoichiometry N (crystal structure): 2
